± gives the uncertainty stated by the source.
Experiment: self-splicing fitness, log relative to wild type (ln ratio); higher = more splicing; Tetrahymena group I intron in knt gene, E. coli kanamycin selection, DiMSum; sequences stand for … in CUCUCU…GGAGGGAAAAGUUAUCAGGCAUGCACCUGGUAGCUAGUCUUUAAACCAAUAGAUUGCAUCGGUUUAAAAGGCAAGACCGUCAAAUUGCGGGAAAGGGGUCAACAGCCGUUCAGUACCAAGUCUCAGGGGAAACUUUGAGAUGGCCUUGCAAAGGGUAUGGUAAUAAGCUGACGGACAUGGUCCUAACCACGCAGCCAAGUCCUAAGUCAACAGAUCUUCUGUUGAUAUGGAUGCAGUUCACAGACUAAAUGUCGGUCGGGGAAGAUGUAUUCUUCUCAUAAGAUAUAGUCGGACCUCUCCUUAAUGGGAGCUAGCGGAUGAAGUGAUGCAACACUGGAGCCGCUGGGAACUAAUUUGUAUGCGAAAGUAUAUUGAUUAGUUUUGGAGUACUCGUGGUCG
Method in brief: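 Library with all eight P1ex-region intron nucleotides randomised, intron inside the knt kanamycin-resistance gene on pET-22b(+), in E. coli BL21(DE3). Cells grew overnight at 37°C or 30°C on LB agar with or without 25 μg/mL kanamycin (plus 100 μg/mL carbenicillin, 50 μM IPTG, 0.2% rhamnose), in six replicate transformations. Pooled colonies were amplicon-sequenced on Illumina HiSeq 2500. DiMSum fitness is the error-weighted combination of wild-type-normalised replicate fold changes, kanamycin versus none.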

Sequence	self-splicing fitness (ln) (30 °C)	self-splicing fitness (ln) (37 °C)
UGUCAGCAAUAUUACGGUAC	-4.07 ± 0.46	-1.38 ± 0.17
UGUCAGCAAUAUUACGGUGG	-2.14 ± 0.099	-1.32 ± 0.097
UGUCAGCAAUAUUACGGUUG	-0.893 ± 0.049	0.317 ± 0.072
UGUCAGCAAUAUUACGUCGA	-0.404 ± 0.073	-0.0273 ± 0.085
UGUCAGCAAUAUUACGUGAA	-0.122 ± 0.068	0.427 ± 0.083
UGUCAGCAAUAUUACGUGAG	-0.0851 ± 0.056	0.251 ± 0.072
UGUCAGCAAUAUUACGUUGU	-4.25 ± 0.27	-2.3 ± 0.16
UGUGAGCAAUAUUACGAAUA	-3.54 ± 0.43	-2.26 ± 0.36
UGUGAGCAAUAUUACGAAUC	-2.91 ± 0.38	
UGUGAGCAAUAUUACGACCG	-1.22 ± 0.19	-0.38 ± 0.21
UGUGAGCAAUAUUACGACUU	-2.13 ± 0.23	-2.33 ± 0.26
UGUGAGCAAUAUUACGAGUA	-2.16 ± 0.21	-2.07 ± 0.29
UGUGAGCAAUAUUACGAGUC	-2.67 ± 0.27	
UGUGAGCAAUAUUACGCACC	-1.27 ± 0.21	-1.14 ± 0.22
UGUGAGCAAUAUUACGCCCA	-0.902 ± 0.39	-1.3 ± 0.36
UGUGAGCAAUAUUACGCUAC	-3 ± 0.32	
UGUGAGCAAUAUUACGGAAC		-1.72 ± 0.48
UGUGAGCAAUAUUACGGCAG	-2.64 ± 0.27	-0.26 ± 0.28
UGUGAGCAAUAUUACGGGAG	-2.52 ± 0.21	-2.04 ± 0.33
UGUGAGCAAUAUUACGGGCU	-0.671 ± 0.38	-1.48 ± 0.46

Sequence	self-splicing fitness (ln) (30 °C)	self-splicing fitness (ln) (37 °C)
UGUGAGCAAUAUUACGGUUC	-2.76 ± 0.21	-2.9 ± 0.24
UGUGAGCAAUAUUACGUCAC	-3.91 ± 0.47	
UGUGAGCAAUAUUACGUGCA	-1.1 ± 0.14	-0.55 ± 0.16
UGUGAGCAAUAUUACGUGUG	-2.7 ± 0.11	-0.66 ± 0.13
UGUGAGCAAUAUUACGUGUU	-3.8 ± 0.25	-2.59 ± 0.25
UGUGAGCAAUAUUACGUUAG	-2.17 ± 0.25	-2.84 ± 0.34
UGUGAGCAAUAUUACGUUGG	-2.86 ± 0.31	-2.85 ± 0.44
UGUUAGCAAUAUUACGAACU	-0.445 ± 0.15	0.216 ± 0.18
UGUUAGCAAUAUUACGAAUU	-1.44 ± 0.11	-1.6 ± 0.22
UGUUAGCAAUAUUACGACCG	-0.238 ± 0.14	0.106 ± 0.14
UGUUAGCAAUAUUACGACUC	-1.01 ± 0.19	-0.182 ± 0.28
UGUUAGCAAUAUUACGAUGA	-0.408 ± 0.09	-1.06 ± 0.092
UGUUAGCAAUAUUACGAUGG	-1.71 ± 0.11	-0.474 ± 0.1
UGUUAGCAAUAUUACGCAAA	-0.989 ± 0.22	-0.62 ± 0.32
UGUUAGCAAUAUUACGCAUG	-1.38 ± 0.084	-0.483 ± 0.089
UGUUAGCAAUAUUACGCCCU	-0.0997 ± 0.17	0.532 ± 0.18
UGUUAGCAAUAUUACGCCGU	-1.98 ± 0.44	-0.747 ± 0.42
UGUUAGCAAUAUUACGCGAG	-3.15 ± 0.25	-2.42 ± 0.19
UGUUAGCAAUAUUACGCGCU	-1.36 ± 0.13	-0.409 ± 0.12
UGUUAGCAAUAUUACGCUCU	-1.66 ± 0.16	-0.371 ± 0.16
